Assays:
[1] = tested on: IC9LC11 non-small cell lung cancer patient-derived xenograft; assay: Antitumor activity in IC9LC11 non-small cell lung cancer patient-derived xenograft model; type: in vivo, immunodeficient female mice; conditions: 5 mg/kg; control group end day, D28
[2] = molecular target: T1, human Endo180-moFc domains I-IV (aa 31-513) (human, UniProt Q9UBG0 31-513); assay: ELISA, immobilized human Endo180-mouse Fc DI-IV
T1 construct: also called huEndo180 (DI-IV); huEndo180-moFc DI-IV; not shown: murine Fc domain
T1 sequence: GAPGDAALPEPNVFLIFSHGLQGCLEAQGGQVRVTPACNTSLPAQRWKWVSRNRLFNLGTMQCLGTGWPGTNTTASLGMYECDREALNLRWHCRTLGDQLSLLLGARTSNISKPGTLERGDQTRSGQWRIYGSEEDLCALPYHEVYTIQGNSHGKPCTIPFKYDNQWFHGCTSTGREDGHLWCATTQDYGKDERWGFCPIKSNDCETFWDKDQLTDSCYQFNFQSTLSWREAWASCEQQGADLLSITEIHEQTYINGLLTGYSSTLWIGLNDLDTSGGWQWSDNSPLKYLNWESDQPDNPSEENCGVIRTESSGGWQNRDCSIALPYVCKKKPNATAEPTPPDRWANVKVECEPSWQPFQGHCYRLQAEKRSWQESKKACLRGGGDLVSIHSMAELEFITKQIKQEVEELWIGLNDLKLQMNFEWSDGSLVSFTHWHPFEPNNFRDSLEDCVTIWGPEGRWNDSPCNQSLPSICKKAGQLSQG

[3] = molecular target: T2, Endo180 on cells (Endo180-expressing HT1080-WT cells; Endo180-transfected HEK293-Endo180 cells) (UniProt Q9UBG0 31-1479); assay: flow cytometry on HT1080-WT cells
T2 construct: whole, on cells; One molecule is used for the endogenous protein on HT1080-WT and the transfected protein on HEK293-Endo180; also called uPARAP
T2 sequence (looked up): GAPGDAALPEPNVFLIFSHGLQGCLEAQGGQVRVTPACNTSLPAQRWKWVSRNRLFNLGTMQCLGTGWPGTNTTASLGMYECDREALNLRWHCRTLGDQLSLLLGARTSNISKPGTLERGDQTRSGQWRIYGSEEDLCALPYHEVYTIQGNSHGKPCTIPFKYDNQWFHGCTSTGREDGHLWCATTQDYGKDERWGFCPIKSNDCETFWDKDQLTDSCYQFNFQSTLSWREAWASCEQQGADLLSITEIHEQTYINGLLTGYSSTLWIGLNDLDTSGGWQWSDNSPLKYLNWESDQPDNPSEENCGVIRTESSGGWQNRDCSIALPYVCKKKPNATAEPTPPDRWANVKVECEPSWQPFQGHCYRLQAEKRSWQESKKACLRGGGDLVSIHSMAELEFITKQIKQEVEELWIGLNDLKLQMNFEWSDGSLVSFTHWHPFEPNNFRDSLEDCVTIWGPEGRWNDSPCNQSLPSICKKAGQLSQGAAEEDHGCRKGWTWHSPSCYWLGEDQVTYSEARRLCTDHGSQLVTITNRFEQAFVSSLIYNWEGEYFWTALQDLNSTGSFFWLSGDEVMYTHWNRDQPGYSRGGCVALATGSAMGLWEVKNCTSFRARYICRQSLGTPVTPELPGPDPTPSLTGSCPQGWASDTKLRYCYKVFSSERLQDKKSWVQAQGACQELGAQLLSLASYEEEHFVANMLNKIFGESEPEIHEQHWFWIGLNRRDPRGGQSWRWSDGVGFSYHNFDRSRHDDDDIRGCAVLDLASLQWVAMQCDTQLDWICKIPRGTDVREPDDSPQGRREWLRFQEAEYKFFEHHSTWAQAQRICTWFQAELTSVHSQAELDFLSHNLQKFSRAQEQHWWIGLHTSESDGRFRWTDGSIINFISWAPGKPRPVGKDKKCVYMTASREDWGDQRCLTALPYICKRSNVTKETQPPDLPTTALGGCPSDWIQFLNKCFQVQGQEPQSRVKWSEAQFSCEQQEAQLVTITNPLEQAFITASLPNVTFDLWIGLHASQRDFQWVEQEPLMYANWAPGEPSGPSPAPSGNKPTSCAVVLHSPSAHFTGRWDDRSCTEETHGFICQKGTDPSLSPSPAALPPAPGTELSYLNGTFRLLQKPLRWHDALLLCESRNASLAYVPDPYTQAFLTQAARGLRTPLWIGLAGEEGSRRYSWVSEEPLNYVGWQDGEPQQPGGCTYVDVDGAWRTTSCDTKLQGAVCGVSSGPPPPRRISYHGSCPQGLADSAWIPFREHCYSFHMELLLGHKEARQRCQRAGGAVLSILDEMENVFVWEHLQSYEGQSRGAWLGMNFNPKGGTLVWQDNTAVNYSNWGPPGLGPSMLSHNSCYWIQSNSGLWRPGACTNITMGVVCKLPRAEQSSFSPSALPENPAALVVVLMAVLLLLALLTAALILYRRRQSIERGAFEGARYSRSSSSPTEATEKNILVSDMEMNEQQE

[4] = molecular target: T3, human Endo180-moFc domains I-III (aa 31-370) (human, UniProt Q9UBG0 31-370); assay: ELISA, immobilized human Endo180-mouse Fc DI-III
T3 construct: also called huEndo180 (DI-III); huEndo180-moFc DI-III; not shown: murine Fc domain
T3 sequence: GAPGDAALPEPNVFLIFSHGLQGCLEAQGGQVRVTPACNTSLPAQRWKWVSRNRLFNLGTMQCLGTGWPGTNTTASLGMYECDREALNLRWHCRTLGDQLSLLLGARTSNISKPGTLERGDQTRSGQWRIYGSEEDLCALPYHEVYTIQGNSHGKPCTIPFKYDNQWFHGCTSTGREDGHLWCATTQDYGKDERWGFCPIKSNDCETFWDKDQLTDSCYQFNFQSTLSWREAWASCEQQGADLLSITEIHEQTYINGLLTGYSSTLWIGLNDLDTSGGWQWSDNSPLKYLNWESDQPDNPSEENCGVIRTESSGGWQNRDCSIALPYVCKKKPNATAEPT

[5] = molecular target: T2, Endo180 on cells (Endo180-expressing …); assay: flow cytometry on HEK293-Endo180 cells

CC(=O)O[C@@]12CO[C@@H]1C[C@H](O)[C@@]1(C)C(=O)[C@H](O)C3=C(C)[C@@H](OC(=O)[C@H](O)[C@@H](NC(=O)OC(C)(C)C)c4ccccc4)C[C@@](O)([C@@H](OC(=O)c4ccccc4)[C@H]21)C3(C)C [Docetaxel]
TGI [1]: 73% | tolerability based on body weight data and clinical observations (mouse, in vivo): well tolerated, except in one mouse | relative weight loss (one mouse, at the group end day): 16.0%

B1: IgG G7V Δab (antibody, V domains shown)
VH: EVQLVESGGGLVKPGGSLRLSCAASGFTFSSYSMNWVRQAPGKGLEWVANIKPDGSERHSVDSVKGRFTISRDNSKNSLYLQMNSLRAEDTAVYYCARPGAGRLDYWGQGTLVTVSS
VL: SSELTQDPAVSVALGQTVRITCQGDSLRSYYASWYQQKPGQAPVLVVYGKNNRPSGIPDRFSGSSSGNTASLTITGAQAEDEADYYCNSRDSSGNPWAFGGGTKVTVL
notes: also called IgG G7V with a silent Fc
EC50 [2]: 0.53 nM | EC50 [3]: 3.7 nM | EC50 [4]: 0.45 nM

B2: OMTX707 antibody-drug conjugate (antibody, human IgG1, lambda, V domains shown)
VH: B1 VH
VL: SSELTQDPAVSVALGQTVRITCQGDSLRSYYASWYQQKPGQAPVLVVYGKNNRPSGIPDRFSGSSSGNTASLTITGAQAEDEADYYCNSRDSSGNPWAFGGGTKVTVLG
modifications: drug-linker TAM558 on cysteine residues, non-site directed (sites not given); drug-linker TAM558 (cytolysin-linker maleimide caproyl vcPABA) on cysteine residues, non-site directed, DAR 3.79
notes: antibody-drug conjugate; also called OMTX707 ADC
EC50 [5]: 1.3 nM

B3: OMTX807 ADC (antibody-drug conjugate) (antibody, human IgG1, lambda, V domains shown)
VH: B1 VH
VL: B2 VL
modifications: drug-linker GGFG-DXd on cysteine residues, non-specific site (sites not given); drug-linker GGFG-DXd on cysteine residues, non-specific site, DAR 8.05
notes: antibody-drug conjugate
EC50 [5]: 0.7 nM

From patent EP4578463A1, “ENDO-180 TARGETED ANTIBODY-DRUG CONJUGATES” (Oncomatryx Biopharma, S.L., priority 2023, dated 2025)
